According to patent US20200392227A1 (LYVGEN BIOPHARMA, published 2020):
Like-named read-outs stand apart in the source and are kept apart here.

T1: human FcγRIIC expressed on CHO cells (human, UniProt P31995 43-323)
T1 construct: whole, on cells
T1 sequence (looked up): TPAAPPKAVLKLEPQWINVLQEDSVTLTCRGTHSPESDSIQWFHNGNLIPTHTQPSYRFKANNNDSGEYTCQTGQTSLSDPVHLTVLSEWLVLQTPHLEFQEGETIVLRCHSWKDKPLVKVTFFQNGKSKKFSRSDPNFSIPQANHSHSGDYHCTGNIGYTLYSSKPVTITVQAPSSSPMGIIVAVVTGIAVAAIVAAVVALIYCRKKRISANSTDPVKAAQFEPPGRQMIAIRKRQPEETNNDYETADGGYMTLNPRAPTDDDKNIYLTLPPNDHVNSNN

T2: human FcRIIA protein (MednaBio, E1033) (human, UniProt P12318 34-218, limits assumed)
T2 construct: Bought; also called FcγRIIA
T2 sequence (looked up): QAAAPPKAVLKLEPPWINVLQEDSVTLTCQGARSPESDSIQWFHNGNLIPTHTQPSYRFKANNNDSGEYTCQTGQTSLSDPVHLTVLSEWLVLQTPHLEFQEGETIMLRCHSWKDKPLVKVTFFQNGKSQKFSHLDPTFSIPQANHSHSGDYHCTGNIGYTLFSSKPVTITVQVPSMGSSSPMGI

T3: human FcRIIB/C protein (MednaBio, E1034) (human, UniProt P31994 43-217, limits assumed)
T3 construct: Bought as FcRIIB/C; also called FcγRIIB; CD32B
T3 sequence (looked up): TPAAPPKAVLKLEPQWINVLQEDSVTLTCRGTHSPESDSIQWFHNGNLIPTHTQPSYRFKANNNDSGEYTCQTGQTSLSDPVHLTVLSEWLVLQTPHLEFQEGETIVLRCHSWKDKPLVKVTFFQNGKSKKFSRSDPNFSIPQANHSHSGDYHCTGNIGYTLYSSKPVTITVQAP

B1: anti-CD137 IgG1 with Fc variant G1m5 (antibody)
heavy: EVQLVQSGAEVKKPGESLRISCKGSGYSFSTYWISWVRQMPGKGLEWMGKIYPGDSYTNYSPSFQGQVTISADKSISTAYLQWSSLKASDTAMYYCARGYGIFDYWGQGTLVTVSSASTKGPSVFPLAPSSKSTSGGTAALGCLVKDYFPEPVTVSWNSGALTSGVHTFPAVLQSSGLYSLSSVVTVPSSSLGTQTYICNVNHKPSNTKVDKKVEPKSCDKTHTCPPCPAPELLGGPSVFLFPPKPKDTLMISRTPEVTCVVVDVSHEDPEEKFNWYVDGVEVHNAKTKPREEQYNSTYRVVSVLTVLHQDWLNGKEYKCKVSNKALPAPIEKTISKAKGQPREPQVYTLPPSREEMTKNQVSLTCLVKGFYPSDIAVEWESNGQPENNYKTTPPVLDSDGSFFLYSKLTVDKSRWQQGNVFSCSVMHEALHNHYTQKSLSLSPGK
light: SYELTQPPSVSVSPGQTASITCSGDNIGDQYAHWYQQKPGQSPVLVIYQDKNRPSGIPERFSGSNSGNTATLTISGTQAMDEADYYCATYTGFGSLAVFGGGTKLTVLGQPKAAPSVTLFPPSSEELQANKATLVCLISDFYPGAVTVAWKADSSPVKAGVETTTPSKQSNNKYAASSYLSLTPEQWKSHRSYSCQVTHEGSTVEKTVAPTECS
notes: copies: 2 + 2
B2: anti-CD137 IgG1 with Fc variant G1m8 (antibody)
heavy: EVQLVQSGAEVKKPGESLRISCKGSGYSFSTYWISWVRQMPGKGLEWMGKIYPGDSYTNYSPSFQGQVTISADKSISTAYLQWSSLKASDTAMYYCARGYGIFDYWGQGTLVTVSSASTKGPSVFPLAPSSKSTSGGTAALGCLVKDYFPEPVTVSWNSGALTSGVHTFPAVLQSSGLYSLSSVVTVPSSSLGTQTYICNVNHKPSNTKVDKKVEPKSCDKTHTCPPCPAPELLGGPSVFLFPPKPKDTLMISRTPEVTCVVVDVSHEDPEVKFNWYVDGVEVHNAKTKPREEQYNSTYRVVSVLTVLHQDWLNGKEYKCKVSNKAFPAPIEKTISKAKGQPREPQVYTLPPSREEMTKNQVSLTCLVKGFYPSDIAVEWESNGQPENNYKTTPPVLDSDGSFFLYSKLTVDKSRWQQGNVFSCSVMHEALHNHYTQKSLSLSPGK
light: B1 light
notes: copies: 2 + 2
B3: anti-CD137 IgG1 with Fc variant G1m29 (antibody)
heavy: EVQLVQSGAEVKKPGESLRISCKGSGYSFSTYWISWVRQMPGKGLEWMGKIYPGDSYTNYSPSFQGQVTISADKSISTAYLQWSSLKASDTAMYYCARGYGIFDYWGQGTLVTVSSASTKGPSVFPLAPSSKSTSGGTAALGCLVKDYFPEPVTVSWNSGALTSGVHTFPAVLQSSGLYSLSSVVTVPSSSLGTQTYICNVNHKPSNTKVDKKVEPKSCDKTHTCPPCPAPELLGPSVFLFPPKPKDTLMISRTPEVTCVVVDVEHEDPEVKFNWYVDGVEVHNAKTKPREEQYNSTYRVVSVLTVLHQDWLNGKEYKCKVSNKAFPAPIEKTISKAKGQPREPQVYTLPPSREEMTKNQVSLTCLVKGFYPSDIAVEWESNGQPENNYKTTPPVLDSDGSFFLYSKLTVDKSRWQQGNVFSCSVMHEALHNHYTQKSLSLSPGK
light: B1 light
notes: copies: 2 + 2
B4: anti-CD137 IgG1 with Fc variant G1m7 (antibody)
heavy: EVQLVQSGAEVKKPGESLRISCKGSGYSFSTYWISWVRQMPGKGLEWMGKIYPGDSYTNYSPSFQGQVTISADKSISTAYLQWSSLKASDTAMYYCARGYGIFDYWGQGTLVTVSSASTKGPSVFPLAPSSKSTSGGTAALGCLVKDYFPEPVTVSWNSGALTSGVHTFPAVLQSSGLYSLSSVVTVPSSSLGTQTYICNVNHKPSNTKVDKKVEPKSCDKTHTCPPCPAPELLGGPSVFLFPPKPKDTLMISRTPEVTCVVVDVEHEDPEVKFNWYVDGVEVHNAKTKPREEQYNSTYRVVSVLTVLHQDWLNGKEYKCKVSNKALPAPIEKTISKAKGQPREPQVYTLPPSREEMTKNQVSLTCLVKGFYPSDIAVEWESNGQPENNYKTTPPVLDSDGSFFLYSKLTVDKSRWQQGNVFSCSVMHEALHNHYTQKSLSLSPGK
light: B1 light
notes: copies: 2 + 2
B5: anti-CD137 IgG1 with Fc variant G1m9 (antibody)
heavy: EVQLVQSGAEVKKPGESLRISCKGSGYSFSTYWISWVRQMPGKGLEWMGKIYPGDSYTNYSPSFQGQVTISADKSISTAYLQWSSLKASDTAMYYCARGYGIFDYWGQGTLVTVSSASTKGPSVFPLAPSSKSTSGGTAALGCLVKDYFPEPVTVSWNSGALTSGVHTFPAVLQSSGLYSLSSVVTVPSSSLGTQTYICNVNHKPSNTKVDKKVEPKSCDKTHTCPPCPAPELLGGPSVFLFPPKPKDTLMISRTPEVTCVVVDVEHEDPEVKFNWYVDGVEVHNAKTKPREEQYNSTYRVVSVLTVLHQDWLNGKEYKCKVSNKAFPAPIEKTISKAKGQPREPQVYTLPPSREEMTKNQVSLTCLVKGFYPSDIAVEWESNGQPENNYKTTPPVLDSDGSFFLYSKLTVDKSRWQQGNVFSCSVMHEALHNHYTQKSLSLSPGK
light: B1 light
notes: copies: 2 + 2
B6: anti-CD137 IgG1 with Fc variant G1m18 (antibody)
heavy: EVQLVQSGAEVKKPGESLRISCKGSGYSFSTYWISWVRQMPGKGLEWMGKIYPGDSYTNYSPSFQGQVTISADKSISTAYLQWSSLKASDTAMYYCARGYGIFDYWGQGTLVTVSSASTKGPSVFPLAPSSKSTSGGTAALGCLVKDYFPEPVTVSWNSGALTSGVHTFPAVLQSSGLYSLSSVVTVPSSSLGTQTYICNVNHKPSNTKVDKKVEPKSCDKTHTCPPCPAPELLSVFLFPPKPKDTLMISRTPEVTCVVVDVSHEDPEVKFNWYVDGVEVHNAKTKPREEQYNSTYRVVSVLTVLHQDWLNGKEYKCKVSNKAFPAPIEKTISKAKGQPREPQVYTLPPSREEMTKNQVSLTCLVKGFYPSDIAVEWESNGQPENNYKTTPPVLDSDGSFFLYSKLTVDKSRWQQGNVFSCSVMHEALHNHYTQKSLSLSPGK
light: B1 light
notes: copies: 2 + 2

Tests used:
[1] = biological target: T1, human FcγRIIC expressed on CHO cells; assay: FACS, CHO cells expressing FcγRIIC
Method: FIGS. 1A-1W are charts showing binding activity of various IgG variants as indicated to different types of Fcγ receptors expressed on CHO-K1 cells at the various concentrations as indicated. The concentrations of each IgG variant, from left to right, are 0 μg/ml, 0.3 μg/ml, 1 μg/ml, 3 μg/ml, and 10 μg/ml in FIGS. 1A-1C, 1E-J, 1L-1M, 1P-1R, and 1T-1V. For FIGS. 1D, 1K, 10, 1S, and 1w the bars, from left to right, correspond to the following concentrations of IgG variant: 0.3 μg/ml, 1 μg/ml, 3 μg/ml, and 10 μg/ml.
For FACS analysis of the IgG mutants' binding to different FcγRs, FcγR overexpressing CHO cells were harvested using trypsin-EDTA and were suspended in cold staining buffer (3% BSA in PBS). Test IgG mutants, which were diluted in staining buffer, were added into the cells. The mixture was incubated 4° C. for 2 hours, and then washed twice with cold staining buffer and re-suspended in PE-labeled anti-human IgG followed by incubation at 4° C. for 2 hours. The mixture was washed twice with staining buffer and re-suspended in 2% PFA in PBS for FACS.

[2] = biological target: T4, human FcRIIIB protein (MednaBio, E1037) (human, UniProt O75015 17-200); assay: BLI
T4 construct: Bought; also called FcγRIIIB; FcgRIIIB
T4 sequence (O75015 17-200 limits assumed): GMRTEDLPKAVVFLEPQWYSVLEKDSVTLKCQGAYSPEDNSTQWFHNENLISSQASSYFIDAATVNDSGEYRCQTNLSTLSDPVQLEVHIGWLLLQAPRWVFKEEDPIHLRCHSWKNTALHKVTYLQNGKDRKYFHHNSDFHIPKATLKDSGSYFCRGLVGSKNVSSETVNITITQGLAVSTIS
In short: (§1)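 Binding was measured by biolayer interferometry on an Octet Red96 System. Commercial human Fc receptor proteins were loaded at 20 μg/mL onto anti-penta-HIS biosensors, which were then dipped into an 8-point 1:3 dilution series of test IgG starting at 300 nM in PBS with 0.1% BSA and 0.02% Tween-20, at pH 7.2 for Fcγ receptors and pH 6 for FcRn. Kd, kon and koff were obtained by global fitting, with data fitted to a 1:1 binding model.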

[3] = biological target: T5, human FcRn protein (MednaBio, E1032) (human, UniProt P55899 24-297; P61769 21-119); assay: BLI
T5 construct: Bought; assays at pH 6
T5 sequence (P55899 24-297 limits assumed, form in doubt, chain 1 of 2): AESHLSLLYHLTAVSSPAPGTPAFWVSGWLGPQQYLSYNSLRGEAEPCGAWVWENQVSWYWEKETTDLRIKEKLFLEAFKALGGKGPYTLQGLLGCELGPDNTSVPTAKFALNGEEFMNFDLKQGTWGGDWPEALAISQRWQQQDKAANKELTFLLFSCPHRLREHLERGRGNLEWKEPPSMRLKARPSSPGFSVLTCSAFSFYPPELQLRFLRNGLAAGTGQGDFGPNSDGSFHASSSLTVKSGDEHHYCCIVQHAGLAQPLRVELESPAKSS
T5 sequence (P61769 21-119 limits assumed, form in doubt, chain 2 of 2): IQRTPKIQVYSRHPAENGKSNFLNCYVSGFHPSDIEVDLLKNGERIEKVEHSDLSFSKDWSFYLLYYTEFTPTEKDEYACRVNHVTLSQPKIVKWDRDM
In short: as §1

[4] = biological target: T6, human FcRIIIA-V158 protein (MednaBio, E1035) (human, UniProt P08637 17-208); assay: BLI
T6 construct: Bought; also called FcγRIIIA(V); FcgRIIIA(V)
T6 sequence (P08637 17-208 F176V): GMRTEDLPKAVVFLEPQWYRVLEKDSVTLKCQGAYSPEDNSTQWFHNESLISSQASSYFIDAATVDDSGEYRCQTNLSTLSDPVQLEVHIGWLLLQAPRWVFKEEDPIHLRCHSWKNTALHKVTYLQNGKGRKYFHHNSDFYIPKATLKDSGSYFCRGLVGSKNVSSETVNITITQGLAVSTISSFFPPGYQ
In short: as §1

[5] = biological target: T2, human FcRIIA protein (MednaBio, E1033); assay: BLI
In short: as §1

[6] = biological target: T3, human FcRIIB/C protein (MednaBio, E1034); assay: BLI
In short: as §1

[7] = biological target: T7, human FcRI protein (MednaBio, E1031) (human, UniProt P12314 16-288, limits assumed); assay: BLI
T7 construct: Bought; loaded on anti-penta-HIS biosensors; also called FcγRI
T7 sequence (P12314 16-288 limits assumed): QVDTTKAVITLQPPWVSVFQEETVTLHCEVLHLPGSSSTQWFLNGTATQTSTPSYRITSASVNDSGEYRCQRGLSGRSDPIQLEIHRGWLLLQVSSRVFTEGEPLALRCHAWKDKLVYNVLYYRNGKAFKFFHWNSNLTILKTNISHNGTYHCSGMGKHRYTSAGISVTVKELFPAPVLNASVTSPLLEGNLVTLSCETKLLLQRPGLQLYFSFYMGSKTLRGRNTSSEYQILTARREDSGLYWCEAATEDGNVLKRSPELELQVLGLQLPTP
In short: as §1

[8] = biological target: T8, human FcRIIIA-F158 protein (MednaBio, E1036) (human, UniProt P08637 17-208); assay: BLI
T8 construct: Bought; also called FcγRIIIA(F)
T8 sequence (P08637 17-208 limits assumed): as the sequence (P08637 17-208 F176V) above, with V160F counted along it
In short: as §1

[9] = biological target: T4, human FcRIIIB protein (MednaBio, E1037); assay: BLI; remark: listed apart in the source
In short: as §1

[10] = biological target: T5, human FcRn protein (MednaBio, E1032); assay: BLI; remark: listed apart in the source
In short: as §1

[11] = biological target: T6, human FcRIIIA-V158 protein (MednaBio, …); assay: BLI; remark: listed apart in the source
In short: as §1

[12] = biological target: T2, human FcRIIA protein (MednaBio, E1033); assay: BLI; remark: listed apart in the source
In short: as §1

[13] = biological target: T3, human FcRIIB/C protein (MednaBio, E1034); assay: BLI; remark: listed apart in the source
In short: as §1

[14] = biological target: T7, human FcRI protein (MednaBio, E1031); assay: BLI; remark: listed apart in the source
In short: as §1

[15] = biological target: T8, human FcRIIIA-F158 protein (MednaBio, …); assay: BLI; remark: listed apart in the source
In short: as §1

Binder | binding result [1] | binding result [2] | Kd [3] [nM] | koff [3] [s⁻¹] | kon [3] [M⁻¹ s⁻¹] | Kd [4] [nM] | koff [4] [s⁻¹] | kon [4] [M⁻¹ s⁻¹] | Kd [5] [nM] | koff [5] [s⁻¹] | kon [5] [M⁻¹ s⁻¹] | Kd [6] [nM] | koff [6] [s⁻¹] | kon [6] [M⁻¹ s⁻¹] | Kd [7] [nM] | koff [7] [s⁻¹] | kon [7] [M⁻¹ s⁻¹] | Kd [8] [nM] | koff [8] [s⁻¹] | kon [8] [M⁻¹ s⁻¹] | also measured
B1 | binds | no binding (tested: 300 nM) | 22 | 0.0077 | 350000 | 290 | 0.073 | 250000 | 670 | 0.23 | 340000 | 640 | 0.18 | 280000 | 1.6 | 0.00047 | 300000 | – | – | – | binding result [8]: no binding (tested: 300 nM)
B2 | binds | no binding (tested: 300 nM) | 16.5 | 0.0111 | 673000 | 230 | 0.074 | 320000 | 270 | 0.17 | 610000 | 420 | 0.11 | 270000 | 2.5 | 0.0016 | 630000 | 260 | 0.057 | 220000 | –
B3 | – | – | – | – | – | – | – | – | – | – | – | – | – | – | – | – | – | – | – | – | binding result [9]: no binding (tested: 300 nM); Kd [10]: 17 nM; koff [10]: 0.013 s⁻¹; kon [10]: 760000 M⁻¹ s⁻¹; binding result [11]: no binding (tested: 300 nM); Kd [12]: 530 nM; koff [12]: 0.14 s⁻¹; kon [12]: 260000 M⁻¹ s⁻¹; Kd [13]: 46 nM; koff [13]: 0.011 s⁻¹; kon [13]: 250000 M⁻¹ s⁻¹; Kd [14]: 37 nM; koff [14]: 0.0098 s⁻¹; kon [14]: 260000 M⁻¹ s⁻¹; binding result [15]: no binding (tested: 300 nM)
B4 | binds | no binding (tested: 300 nM) | 15 | 0.01 | 670000 | 87 | 0.039 | 440000 | 290 | 0.11 | 380000 | 110 | 0.032 | 280000 | 2.5 | 0.0016 | 630000 | 140 | 0.05 | 350000 | –
B5 | binds | no binding (tested: 300 nM) | 19.1 | 0.0116 | 607000 | 86 | 0.1 | 1.2e+06 | 680 | 0.13 | 180000 | 25 | 0.0051 | 200000 | 3.1 | 0.0016 | 510000 | 180 | 0.091 | 520000 | –
B6 | – | – | – | – | – | – | – | – | – | – | – | – | – | – | – | – | – | – | – | – | binding result [9]: no binding (tested: 300 nM); Kd [10]: 12.8 nM; koff [10]: 0.00803 s⁻¹; kon [10]: 630000 M⁻¹ s⁻¹; binding result [11]: no binding (tested: 300 nM); Kd [12]: 140 nM; koff [12]: 0.029 s⁻¹; kon [12]: 200000 M⁻¹ s⁻¹; Kd [13]: 670 nM; koff [13]: 0.39 s⁻¹; kon [13]: 580000 M⁻¹ s⁻¹; Kd [14]: 260 nM; koff [14]: 0.21 s⁻¹; kon [14]: 830000 M⁻¹ s⁻¹; binding result [15]: no binding (tested: 300 nM)
